PMC11609306, “Phosphorylation determines the glucose metabolism reprogramming and tumor-promoting activity of sine oculis homeobox 1” (Signal Transduction and Targeted Therapy, 2024)

Assays:
His-tagged ERK1 = target: T1, His-tagged ERK1 (UniProt P27361 1-379); experiment: pull-down; GST pull-down: purified GST-SIX1 fusion protein with purified His-tagged ERK1/2; conditions: both partners purified
T1 construct: Extracellular signal-regulated protein kinase 1 (ERK1); Built in pET28a; also called His-tagged ERK1/2; source: E. coli BL21, purified (His-Sepharose beads)
T1 sequence (P27361 whole entry, the tested form may be a part): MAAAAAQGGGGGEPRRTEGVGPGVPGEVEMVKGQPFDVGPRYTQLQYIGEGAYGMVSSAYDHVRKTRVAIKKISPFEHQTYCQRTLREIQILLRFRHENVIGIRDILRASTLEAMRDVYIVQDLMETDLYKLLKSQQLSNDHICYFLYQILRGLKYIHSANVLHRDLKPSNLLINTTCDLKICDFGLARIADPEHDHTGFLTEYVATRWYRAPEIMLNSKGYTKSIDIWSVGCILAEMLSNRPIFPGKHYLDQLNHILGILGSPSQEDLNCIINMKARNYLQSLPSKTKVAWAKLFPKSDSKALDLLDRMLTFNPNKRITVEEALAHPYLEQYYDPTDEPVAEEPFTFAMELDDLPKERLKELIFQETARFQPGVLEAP

His-tagged ERK2 = target: T2, His-tagged ERK2 (UniProt P28482 1-360); experiment: as above; conditions: both partners purified
T2 construct: Extracellular signal-regulated protein kinase 2 (ERK2); Built in pET28a; also called His-tagged ERK1/2; source: E. coli BL21, purified (His-Sepharose beads)
T2 sequence (P28482 whole entry): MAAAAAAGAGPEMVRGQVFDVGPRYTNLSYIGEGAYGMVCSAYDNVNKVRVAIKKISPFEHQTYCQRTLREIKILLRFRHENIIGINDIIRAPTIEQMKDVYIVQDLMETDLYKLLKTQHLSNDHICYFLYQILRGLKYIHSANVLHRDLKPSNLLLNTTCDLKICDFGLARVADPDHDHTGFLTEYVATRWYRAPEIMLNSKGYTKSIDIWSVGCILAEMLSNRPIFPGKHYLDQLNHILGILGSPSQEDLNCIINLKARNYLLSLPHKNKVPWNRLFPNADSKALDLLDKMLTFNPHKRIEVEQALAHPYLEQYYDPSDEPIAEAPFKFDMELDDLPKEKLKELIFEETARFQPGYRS

B1: GST-SIX1 fusion protein (natural protein, human, UniProt Q15475 1-284, looked up)
chain: MSMLPSFGFTQEQVACVCEVLQQGGNLERLGRFLWSLPACDHLHKNESVLKAKAVVAFHRGNFRELYKILESHQFSPHNHPKLQQLWLKAHYVEAEKLRGRPLGAVGKYRVRRKFPLPRTIWDGEETSYCFKEKSRGVLREWYAHNPYPSPREKRELAEATGLTTTQVSNWFKNRRQRDRAAEAKERENTENNNSSSNKQNQLSPLEGGKPLMSSSEEEFSPPQSPDQNSVLLLQGNMGHARSSNYSLPGLTASQPSHGLQTHQHQLQDSLLGPLTSSLVDLGS
notes: Sine oculis homeobox 1 (SIX1), human; Built in pGEX-KG; source: E. coli BL21, purified (glutathione-Sepharose 4B)
binding result (His-tagged ERK1): binds | binding result (His-tagged ERK2): binds
